The target of this series is T1, Bcl-TEV IRES iADAR (tandem-dimer MCP, BAD peptide fused to the N-terminus of ADAR2-DD(E488Q & F697Y), TEV cut site, Bcl-xL, TagBFP).
T1 chain: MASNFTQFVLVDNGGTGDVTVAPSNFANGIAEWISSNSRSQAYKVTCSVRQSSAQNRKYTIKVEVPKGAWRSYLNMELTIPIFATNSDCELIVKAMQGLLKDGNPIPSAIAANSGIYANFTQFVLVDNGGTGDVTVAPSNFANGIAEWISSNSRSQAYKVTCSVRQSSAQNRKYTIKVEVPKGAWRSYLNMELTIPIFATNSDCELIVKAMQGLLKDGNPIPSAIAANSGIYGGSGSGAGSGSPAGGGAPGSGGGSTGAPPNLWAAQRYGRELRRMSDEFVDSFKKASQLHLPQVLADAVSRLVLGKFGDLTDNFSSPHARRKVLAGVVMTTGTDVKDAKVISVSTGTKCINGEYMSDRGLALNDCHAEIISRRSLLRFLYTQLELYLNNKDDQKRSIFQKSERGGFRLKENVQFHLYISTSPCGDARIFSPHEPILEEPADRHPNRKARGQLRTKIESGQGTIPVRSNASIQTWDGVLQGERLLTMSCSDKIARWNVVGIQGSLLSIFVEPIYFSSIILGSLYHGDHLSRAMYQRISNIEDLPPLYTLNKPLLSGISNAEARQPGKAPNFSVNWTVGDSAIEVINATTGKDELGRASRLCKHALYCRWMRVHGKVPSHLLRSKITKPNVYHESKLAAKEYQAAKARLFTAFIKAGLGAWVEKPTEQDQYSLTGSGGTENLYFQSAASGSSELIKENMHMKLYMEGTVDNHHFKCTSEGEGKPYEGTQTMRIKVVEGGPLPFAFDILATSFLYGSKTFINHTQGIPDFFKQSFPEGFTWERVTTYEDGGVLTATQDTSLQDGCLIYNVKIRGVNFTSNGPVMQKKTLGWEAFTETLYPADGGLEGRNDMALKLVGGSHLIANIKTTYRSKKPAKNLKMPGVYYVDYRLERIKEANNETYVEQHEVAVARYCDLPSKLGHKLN

B1: TEV Protease (protein)
chain: MGESLFKGPRDYNPISSTICHLTNESDGHTTSLYGIGFGPFIITNKHLFRRNNGTLLVQSLHGVFKVKNTTTLQQHLIDGRDMIIIRMPKDFPPFPQKLKFREPQREERICLVTTNFQTKSMSSMVSDTSCTFPSSDGIFWKHWIQTKDGQCGSPLVSTRDGFIVGIHSASNFTNTNNYFTSVPKNFMELLTNQEAQQWVSGWRLNADSVLWGGHKVFMVKPEEPFQPVKEATQL
As for B1, the “fold change of the mean RFU (mNeonGreen-to-mCherry), Bcl-TEV IRES iADAR co-transfected with TEV protease” value stood at 17× for TEV protease.

These data come from US20260176653.
